Source: patent US20060275823A1 (published 2006)

Biological target: T1, ICS (pro-IL-1beta-derived epitope)
T1 construct: also called ICS peptide; 14-mer called ICS
T1 peptide: NEAYVHDGPVRSLN
Test: method not stated; measured in a different context from the cleavage assay, with LEPB lacking a free N-terminus

B1: LEPB (peptide)
peptide: KARKEAELAAATAEQ
notes: In the ICE cleavage experiment it was a synthetic peptide with a free N-terminus; also called synthetic LEPB; 15mer (LEPB)
- Kd: 2000 nM
